From patent publication US20230181754A1 (BRIGHT PEAK THERAPEUTICS, published 2023) come the findings set out here.

The target of experiment [1] is T1, recombinant biotinylated human Fc gamma receptor I (FcγRI/CD64) (human, UniProt P12314 16-288, limits assumed, biotinylated).
T1 construct: also called FcγR1
Briefly: AlphaLISA competition: free antibody competes with human IgG Fc on acceptor beads for biotinylated human FcγRI on streptavidin donor beads. For orientation: Bead proximity is the source of the signal in Alpha formats.

The target of experiment [2] is T2, recombinant biotinylated human Fc gamma receptor IIa (FcγRIIa/CD32a 167H) (human, UniProt P12318 36-218, limits assumed, biotinylated).
T2 sequence (looked up): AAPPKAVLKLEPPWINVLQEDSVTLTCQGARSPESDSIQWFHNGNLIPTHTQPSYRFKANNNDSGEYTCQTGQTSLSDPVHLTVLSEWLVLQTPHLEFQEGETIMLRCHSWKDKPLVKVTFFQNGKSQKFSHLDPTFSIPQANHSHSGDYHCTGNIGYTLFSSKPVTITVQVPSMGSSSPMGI
The experiment in a line: AlphaLISA competition: free antibody competes with human IgG Fc on acceptor beads for biotinylated human FcγRIIa on streptavidin donor beads.

T1 sequence (P12314 16-288 limits assumed): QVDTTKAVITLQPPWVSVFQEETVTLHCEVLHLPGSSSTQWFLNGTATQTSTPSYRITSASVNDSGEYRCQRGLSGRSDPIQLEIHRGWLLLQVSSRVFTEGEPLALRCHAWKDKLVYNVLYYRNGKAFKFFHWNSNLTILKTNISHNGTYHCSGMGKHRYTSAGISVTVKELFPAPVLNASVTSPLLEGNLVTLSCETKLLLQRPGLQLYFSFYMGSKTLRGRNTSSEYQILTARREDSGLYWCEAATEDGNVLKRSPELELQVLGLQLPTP

B1: Durvalumab (unmodified anti-PD-L1 antibody) (antibody, human IgG1, kappa)
heavy: EVQLVESGGGLVQPGGSLRLSCAASGFTFSRYWMSWVRQAPGKGLEWVANIKQDGSEKYYVDSVKGRFTISRDNAKNSLYLQMNSLRAEDTAVYYCAREGGWFGELAFDYWGQGTLVTVSSASTKGPSVFPLAPSSKSTSGGTAALGCLVKDYFPEPVTVSWNSGALTSGVHTFPAVLQSSGLYSLSSVVTVPSSSLGTQTYICNVNHKPSNTKVDKRVEPKSCDKTHTCPPCPAPEFEGGPSVFLFPPKPKDTLMISRTPEVTCVVVDVSHEDPEVKFNWYVDGVEVHNAKTKPREEQYNSTYRVVSVLTVLHQDWLNGKEYKCKVSNKALPASIEKTISKAKGQPREPQVYTLPPSREEMTKNQVSLTCLVKGFYPSDIAVEWESNGQPENNYKTTPPVLDSDGSFFLYSKLTVDKSRWQQGNVFSCSVMHEALHNHYTQKSLSLSPGK
light: EIVLTQSPGTLSLSPGERATLSCRASQRVSSSYLAWYQQKPGQAPRLLIYDASSRATGIPDRFSGSGSGTDFTLTISRLEPEDFAVYYCQQYGSLPWTFGQGTKVEIKRTVAAPSVFIFPPSDEQLKSGTASVVCLLNNFYPREAKVQWKVDNALQSGNSQESVTEQDSKDSTYSLSSTLTLSKADYEKHKVYACEVTHQGLSSPVTKSFNRGEC
notes: also called Imfinzi; MEDI-4736
Regarding B1, in experiment [1], the binding result is on record as “binds”. The “IC50 (read off the curve)” value in experiment [2] was roughly 400 nM.
